Reference: patent publication US8003599B2, “Inhibitors of L1 and ADAM10 for the treatment of carcinomas” (Deutsches Krebsforschungszentrum, priority 2004, dated 2011)

System: HEK293 cells
Assay: Haptotactic cell migration assay in Transwell chambers, HEK293 cells
Format: cell-based, human
Description: (C) Inhibition of haptotactic cell migration in the absence or presence of the indicated mAbs to integrins at a final concentration of 10 μg/ml. FN at 10 μg/ml or BSA for control were coated onto the backside of Transwell chambers. Cells were seeded into the top chamber and allowed to transmigrate for 16 hr at 37° C. The antibody was present during the assay time. Each determination was done in quadruplicate and transmigrated cells were stained from the back of the filter. The dye was eluted from the filter and measured at 595 nm. The amount of dye is proportional to the number of transmigrated cells. Values for the migration on BSA were below 0.25 O.D. units for each cell type.
The haptotactic cell migration assay on fibronectin, laminin or BSA was performed in Transwell chambers (Costar, 6.5 mm diameter, 5 um pore size) and was described in detail elsewhere (Mechtersheimer et al., supra). Transmigrated cells were quantified by staining of the transwell membranes with cristalviolet solution as described (Mechtersheimer at al., supra). The eluted dye was measured at 595 nm in an ELISA reader.

B1: soluble L1: affinity purified soluble L1 from ascites fluid of ovarian carcinoma patients, 150 kDa and 200 kDa (protein)
chain: IQIPEEYEGHHVMEPPVITEQSPRRLVVFPTDDISLKCEASGKPEVQFRWTRDGVHFKPKEELGVTVYQSPHSGSFTITGNNSNFAQRFQGIYRCFASNKLGTAMSHEIRLMAEGAPKWPKETVKPVEVEEGESVVLPCNPPPSAEPLRIYWMNSKILHIKQDERVTMGQNGNLYFANVLTSDNHSDYICHAHFPGTRTIIQKEPIDLRVKATNSMIDRKPRLLFPTNSSSHLVALQGQPLVLECIAEGFPTPTIKWLRPSGPMPADRVTYQNHNKTLQLLKVGEEDDGEYRCLAENSLGSARHAYYVTVEAAPYWLHKPQSHLYGPGETARLDCQVQGRPQPEVTWRINGIPVEELAKDQKYRIQRGALILSNVQPSDTMVTQCEARNRHGLLLANAYIYVVQLPAKILTADNQTYMAVQGSTAYLLCKAFGAPVPSVQWLDEDGTTVLQDERFFPYANGTLGIRDLQANDTGRYFCLAANDQNNVTIMANLKVKDATQITQGPRSTIEKKGSRVTFTCQASFDPSLQPSITWRGDGRDLQELGDSDKYFIEDGRLVIHSLDYSDQGNYSCVASTELDVVESRAQLLVVGSPGPVPRLVLSDLHLLTQSQVRVSWSPAEDHNAPIEKYDIEFEDKEMAPEKWYSLGKVPGNQTSTTLKLSPYVHYTFRVTAINKYGPGEPSPVSETVVTPEAAPEKNPVDVKGEGNETTNMVITWKPLRWMDWNAPQVQYRVQWRPQGTRGPWQEQIVSDPFLVVSNTSTFVPYEIKVQAVNSQGKGPEPQVTIGYSGEDYPQAIPELEGIEILNSSAVLVKWRPVDLAQVKGHLRGYNVTYWREGSQRKHSKRHIHKDHVVVPANTTSVILSGLRPYSSYHLEVQAFNGRGSGPASEFTFSTPEGVPGHPEALHLECQSNTSLLLRWQPPLSHNGVLTGYVLSYHPLDEGGKGQLSFNLRDPELRTHNLTDLSPHLRYRFQLQATTKEGPGEAIVREGGTMALSGISDFGNISATAGENYSVVSWVPKEGQCNFRFHILFKALGEEKGGASLSPQYVSYNQSSYTQWDLQPDTDYEIHLFKERMFRHQMAVKTNGTGRVRLPPAGFATE
In the case of B1, the “induction of cell migration by ascites derived soluble L1” value (fibronectin as substrate (FIG. 4B)) is reported as “potent dose-dependent inducer of cell migration”.

B2: soluble L1 released from HEK293-hL1mutSH3 cells: supernatant collected from HEK293-hL1mutSH3 cells, concentrated tenfold (protein, UniProt P32004 20-1120, looked up)
extracellular domain: B1 chain
modifications: extracellular domain from SH3-motif mutant L1
notes: supernatant collected from HEK293-hL1mutSH3 cells, concentrated tenfold
For B2, the “induction of HEK293 migration by L1mutSH3-HEK293 supernatant” value (conditioned medium concentrated tenfold) was “able to induce migration”.
